Drawing on publication PMC7611776, this text covers stoichiometry N for 2 substances.

The target in test [1] is HIV-1 Gag polyprotein, uncleaved, in immature virus particles (MA domain of Gag) (HIV-1). Kind of test: cryo-EM structure.
Test [2] deals with HIV-1 matrix protein (MA), cleaved, in mature cHIV particles (HIV-1). Kind of test: cryo-EM structure.

Turning to “HIV-1 Gag polyprotein, uncleaved, in immature virus particles (MA domain of Gag) (natural protein)”, the stoichiometry N in test [1] worked out at 3. Regarding “HIV-1 matrix protein (MA), cleaved, in mature cHIV particles (natural protein)”, the stoichiometry N in test [2] was determined as 3.
